Square brackets hold non-standard residues; d marks the D form. Peptide text beside a SMILES is read from it. * marks the point of attachment. DOTA = O=C(O)CN1CCN(CC(=O)O)CCN(CC(=O)*)CCN(CC(=O)O)CC1; Butanoyl(4-(4-MePh)) = Cc1ccc(CCCC(=O)*)cc1; 4Amb = NCc1ccc(C(=O)O)cc1; Nle = CCCC[C@H](N)C(=O)O; Ahx = NCCCCCC(=O)O
System: tumor site where the cholecystokinin B receptor is overexpressed
Parameters: species or system nude mice
Settings: mouse, in vivo
Experimental: Establishment of tumor animal model: Five-to six-week-old male experimental nude mice are purchased from the National Laboratory Animal Center (NLAC, TAIWAN) and bred in the animal facility. All animal experiment procedures are performed in accordance with the protocols approved by Institutional Animal Care and Use Committee (IACUC, TAIWAN). The experimental mice are kept at a temperature of 21-23° C., and a 12-hour light-dark cycle are used as the basis for the animal's physiological cycle. A431-CCK2R^(−) and A431-CCK2R^(+) cells (2×10^6 cells) are inoculated in the left and right hind limbs of the mice. After the tumors growing to 200-300 mm^3, the radioactive labeled complexes Lu-177-D1, Lu-177-D2, and Lu-177-D3 are used as radiotherapy drugs and start the treatments. The cholecystokinin B receptor-targeted radiotherapy drugs […], Lu-177-D2, and Lu-177-D3 are administrated to the mice respectively by tail vein injection. After different time periods of administration, such as 4, 24, and 48 hours, the coronal sections of three tumor mice are obtained (Refer to FIG. 3). By showing the comparison of NanoSPECT and CT fusion images at different time points, the accumulation of these radiotherapy drugs in the tumor tissue can be observed. Then measure and record the tumor size twice a week. […]

## CCCC[C@H](NC(=O)[C@H](Cc1c[nH]c2ccccc12)NC(=O)CNC(=O)[C@H](Cc1ccc(O)cc1)NC(=O)[C@H](C)NC(=O)[C@H](CCC(=O)O)NC(=O)[C@H](CCC(=O)O)NC(=O)[C@H](CCC(=O)O)NC(=O)[C@H](CCC(=O)O)NC(=O)[C@H](CCC(=O)O)NC(=O)[C@H](CCC(=O)O)NC(=O)CCCCCNC(=O)[C@H](CCCCNC(=O)CCCc1ccc(C)cc1)NC(=O)CN1CCN(CC(=O)O)CCN(CC(=O)O)CCN(CC(=O)O)CC1)C(=O)N[C@@H](CC(=O)O)C(=O)N[C@@H](Cc1ccccc1)C(N)=O [Lu-177-D1, metal not drawn] ({DOTA}-K(Butanoyl(4-(4-MePh)))[Ahx]EEEEEEAYGW[Nle]DF-NH2)
  duration of drug accumulation in the tumor site: at least 48 hours

## CCCC[C@H](NC(=O)[C@H](Cc1c[nH]c2ccccc12)NC(=O)CNC(=O)[C@H](Cc1ccc(O)cc1)NC(=O)[C@H](C)NC(=O)[C@H](CCC(=O)O)NC(=O)[C@H](CCC(=O)O)NC(=O)[C@H](CCC(=O)O)NC(=O)[C@H](CCC(=O)O)NC(=O)[C@H](CCC(=O)O)NC(=O)[C@H](CCC(=O)O)NC(=O)c1ccc(CNC(=O)[C@H](CCCCNC(=O)CCCc2ccc(C)cc2)NC(=O)CN2CCN(CC(=O)O)CCN(CC(=O)O)CCN(CC(=O)O)CC2)cc1)C(=O)N[C@@H](CC(=O)O)C(=O)N[C@@H](Cc1ccccc1)C(N)=O [Lu-177-D3, metal not drawn] ({DOTA}-K(Butanoyl(4-(4-MePh)))[4Amb]EEEEEEAYGW[Nle]DF-NH2)
  duration of drug accumulation in the tumor site: at least 48 hours
